The text below walks through data of paper PMC12433258, “Binding Differences of the Peptide‐Substrate–Binding Domain of Collagen Prolyl 4‐Hydroxylases I and II for Proline‐ and Hydroxyproline‐Rich Peptides” (Proteins, 2025).

The target in test [1] is PSB‐I^143–238 construct (peptide‐substrate–binding domain of the α‐I subunit of human collagen prolyl 4‐hydroxylase I) (human) (UniProt P13674). In words: ITC; 3 mM peptide titrated into 50 μM PSB‐I^143–238 in the cell; 20 mM Bis‐Tris, 100 mM glycine, pH 6.8; 25°C; one‐set‐of‐sites model with fixed stoichiometry (n = 1); three measurements.
Test [2] deals with PSB‐II^142–236 construct (peptide‐substrate–binding domain of the α‐II subunit of human collagen prolyl 4‐hydroxylase II) (human) (UniProt O15460). In words: ITC; 3 mM peptide titrated into 50 μM PSB‐II in the cell; 20 mM Tris, 50 mM NaCl, 50 mM glycine, pH 8.0; 25°C; one‐set‐of‐sites model with fixed stoichiometry (n = 1); three measurements. On the technique in general: Isothermal titration calorimetry measures the heat released or taken up as one component is titrated into another.

pKd: −log10 of the molar value.

PSB‐I^143–238 construct (peptide‐substrate–binding domain of the α‐I subunit of human collagen prolyl 4‐hydroxylase I) (human), sequence (P13674 160-255): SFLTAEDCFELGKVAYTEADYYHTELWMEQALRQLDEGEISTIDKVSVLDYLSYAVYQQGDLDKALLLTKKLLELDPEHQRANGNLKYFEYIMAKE
PSB‐II^142–236 construct (peptide‐substrate–binding domain of the α‐II subunit of human collagen prolyl 4‐hydroxylase II) (human), sequence (O15460 163-257): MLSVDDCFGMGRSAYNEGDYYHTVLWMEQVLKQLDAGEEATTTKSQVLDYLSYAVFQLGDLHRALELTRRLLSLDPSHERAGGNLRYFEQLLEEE

For the substance POG‐PAG‐POG peptide, the pKd (usually −log10 of the Kd, conventionally taken in molar units) is 4.10 in test [1] and 4.58 in test [2]. The dH in test [1] is -12.7 kcal/mol.
